The record followed here is patent publication US20250042992A1 (University of California, published 2025).

Some results are limits rather than exact numbers.

Experiment [1] addresses T1, recombinant fusion protein of human DLK1 extracellular domain (ECD) and monomeric immunoglobulin Fc domain … (human, UniProt P80370 24-303).
T1 construct: also called human DLK1 ECD-mFc fusion protein; not shown: monomeric immunoglobulin Fc domain (mFc)
T1 sequence: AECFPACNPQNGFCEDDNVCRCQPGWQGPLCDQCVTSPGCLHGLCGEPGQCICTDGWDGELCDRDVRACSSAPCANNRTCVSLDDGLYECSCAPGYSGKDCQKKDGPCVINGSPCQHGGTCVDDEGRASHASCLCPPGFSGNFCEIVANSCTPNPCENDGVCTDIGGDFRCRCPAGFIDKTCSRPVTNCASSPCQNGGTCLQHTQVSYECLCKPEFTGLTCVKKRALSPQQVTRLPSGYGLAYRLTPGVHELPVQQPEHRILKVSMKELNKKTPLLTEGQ
The experiment in a line: affinity on recombinant DLK1 ECD-mFc; method not stated.

The target in experiment [2] is T2, mouse DLK1 fused to mGFP, overexpressed on HEK293T cells (mouse, UniProt Q09163 24-385).
T2 construct: not shown: mGFP fluorescent protein fused to DLK1
T2 sequence: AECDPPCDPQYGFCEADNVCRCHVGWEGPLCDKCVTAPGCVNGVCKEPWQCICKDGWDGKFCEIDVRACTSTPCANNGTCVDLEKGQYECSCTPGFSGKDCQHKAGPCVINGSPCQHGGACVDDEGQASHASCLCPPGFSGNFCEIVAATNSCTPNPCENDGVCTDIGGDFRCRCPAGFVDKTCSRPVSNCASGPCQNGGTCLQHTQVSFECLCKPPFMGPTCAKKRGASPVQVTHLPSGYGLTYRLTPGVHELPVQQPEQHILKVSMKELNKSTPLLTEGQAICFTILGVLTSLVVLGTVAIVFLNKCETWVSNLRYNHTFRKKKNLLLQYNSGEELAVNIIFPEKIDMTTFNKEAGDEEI
Put plainly: KinExA on cells, row HEK293T Mouse DLK1mGFP mass.

The target in experiment [3] is human DLK1 endogenously expressed on COR-L279 small cell lung carcinoma cells (human) (UniProt P80370). The experiment in a line: KinExA on cells, row CORL-279 cells(adherent). On the technique in general: In KinExA the mixture passes briefly over coated beads that capture the unbound partner.
The target of experiment [4] is T3, human DLK1 short form (isoform 2, DLK1-MB) fused to mGFP, expressed on HEK293T cells (human, UniProt P80370 24-383).
T3 sequence: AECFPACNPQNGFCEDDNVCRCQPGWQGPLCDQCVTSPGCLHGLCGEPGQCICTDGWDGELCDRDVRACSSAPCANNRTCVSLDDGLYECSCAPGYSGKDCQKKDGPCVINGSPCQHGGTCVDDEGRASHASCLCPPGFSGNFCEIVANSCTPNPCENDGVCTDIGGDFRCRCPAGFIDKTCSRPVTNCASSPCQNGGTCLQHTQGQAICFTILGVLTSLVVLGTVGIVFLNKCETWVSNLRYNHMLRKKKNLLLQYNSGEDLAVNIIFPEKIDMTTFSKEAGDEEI
Put plainly: cell-based or functional assay.

The target in experiment [5] is T4, DLK1 ECD-mFc long form (human DLK1-FL, isoform 1) (human, UniProt P80370 24-303).
T4 construct: also called long form of the human DLK1 protein (ELISA coat); not shown: mFc (monomeric immunoglobulin Fc domain)
T4 sequence: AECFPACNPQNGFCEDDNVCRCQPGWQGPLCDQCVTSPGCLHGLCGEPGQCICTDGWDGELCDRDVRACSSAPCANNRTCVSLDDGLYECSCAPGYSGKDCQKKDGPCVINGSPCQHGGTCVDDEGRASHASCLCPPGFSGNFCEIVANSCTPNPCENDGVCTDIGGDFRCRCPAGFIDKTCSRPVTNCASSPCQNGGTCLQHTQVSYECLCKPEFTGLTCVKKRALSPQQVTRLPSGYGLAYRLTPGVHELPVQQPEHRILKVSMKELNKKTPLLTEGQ
The experiment in a line: ELISA, plate coated with long form of DLK1 ECD-mFc (isoform 1), anti-human IgG Fc-HRP, OD450nm. The method, then: (§1) Plates were incubated with DLK1 Abs serially diluted 2-fold starting from 400 ng/ml in 5% BSA/PBS at RT for 1.5 hrs. Mouse anti-human IgG Fc secondary antibody conjugated to HRP (Novus catalog number: NBP1-78623H) at 1:3000 dilution was applied to each well at 50 μl/well and further incubated at RT for 1 hr. The ELISA was developed first with Thermo Scientific Pierce 1-Step™ Ultra TMB-ELISA substrate solution and then with addition of sulfuric acid stop solution. The ELISA plate was read on a plate reader at 450 nm.

Experiment [6] deals with T5, human DLK1 long form (isoform 1, DLK1-FL) fused to mGFP, overexpressed on HEK293T cells (human, UniProt P80370 24-383).
T5 construct: also called HEK293T DLK1 mGFP G06 (long form); DLK-FL; not shown: mGFP fluorescent protein fused to DLK1
T5 sequence: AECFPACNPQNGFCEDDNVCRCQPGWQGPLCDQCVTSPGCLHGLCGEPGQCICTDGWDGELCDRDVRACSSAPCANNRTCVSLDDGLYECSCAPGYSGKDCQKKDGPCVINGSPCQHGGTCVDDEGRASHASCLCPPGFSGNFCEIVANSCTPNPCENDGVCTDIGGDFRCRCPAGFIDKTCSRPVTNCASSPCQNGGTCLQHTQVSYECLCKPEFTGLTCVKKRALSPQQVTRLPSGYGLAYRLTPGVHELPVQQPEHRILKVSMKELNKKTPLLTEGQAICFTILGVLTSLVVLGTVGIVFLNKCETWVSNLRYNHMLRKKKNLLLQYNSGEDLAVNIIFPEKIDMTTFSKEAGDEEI
The experiment in a line: KinExA on HEK293T DLK1mGFP Human Clone G06 cells detached by Versene; Error% 3.83; 95% CI 0.455nM - 2.19nM; equilibrium curves 500pM, 20nM.

In experiment [7] the target is T4, DLK1 ECD-mFc long form (human DLK1-FL, …). The experiment in a line: ELISA, plate coated with DLK1 ECD-mFc long form. The method, then: as §1
In general terms: ELISA stands for enzyme-linked immunosorbent assay.

For experiment [8], the target named is T6, rat DLK1 fused to mGFP, overexpressed on HEK293T cells (rat, UniProt O70534 24-383).
T6 construct: whole, on cells; not shown: mGFP fluorescent protein fused to DLK1
T6 sequence (looked up): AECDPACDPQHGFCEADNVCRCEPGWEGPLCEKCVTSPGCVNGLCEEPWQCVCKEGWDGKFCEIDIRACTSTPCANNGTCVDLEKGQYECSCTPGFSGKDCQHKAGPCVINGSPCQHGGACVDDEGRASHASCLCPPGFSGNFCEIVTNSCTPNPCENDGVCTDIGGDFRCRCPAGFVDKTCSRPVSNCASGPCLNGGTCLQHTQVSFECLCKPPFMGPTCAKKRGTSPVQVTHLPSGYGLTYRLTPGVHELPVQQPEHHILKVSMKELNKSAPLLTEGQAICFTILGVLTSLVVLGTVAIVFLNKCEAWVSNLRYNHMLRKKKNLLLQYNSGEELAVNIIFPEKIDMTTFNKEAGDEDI
The experiment in a line: flow cytometry, row HEK293T Rat DLK1mGFP mass pop. (In general: In flow cytometry, cells or beads pass a laser one at a time.)

B1: humanized anti-DLK1 antibody 04-0547-h2 (IgG1) (antibody, V domains shown)
VH: EVQLVESGGGLVQPGGSLRLSCAASGFSISDYYMAWVRQAPGKGLEWVANINYDGTNTYYADSVKGRFTISRDNSKNTLYLQMNSLRAEDTAVYYCVRSYYYYGMEYWGQGTTVTVSS
VL: DIQMTQSPSSLSASVGDRVTITCRASHDVSTAVAWYQQKPGKAPKLLIYSASYRYTGVPSRFSGSGSGTDFTLTISSLQPEDFATYYCQQHYRIPLTFGQGTKLEIK
notes: human kappa (P01834) and human IgG1 (P01857) constant regions
Broadly, the Kd is the equilibrium constant for the complex coming apart. B1: the figures for the Kd in experiment [1], in experiment [2] and in experiment [3] were ~0.3 nM, 13 nM and 8.2 nM, respectively.

B2: humanized anti-DLK1 antibody 04-0561-F1 (IgG1) (antibody, V domains shown)
VH: QVQLQESGPGLVKPSETLSLTCTVSGFSLSIYSVHWVRQPPGKGLEWIGLIWGGGSTDYNPSLKSRVTISKDTSKNQVSLKLSSVTAADTAVYYCARKEGNYLWFAYWGQGTLVTVSS
VL: DIVMTQSPDSLAVSLGERVTMNCKSSQSLLQSSNQKNYLAWYQQKPGQPPKLLVYFASTRESGVPDRFSGSGSGTDFTLTISSVQAEDVAVYYCQQHYSIPLTFGQGTKLEIKR
The EC50 is the midpoint of the concentration-response curve. Lower therefore signals an effect from little substance. Consider B2, for which the “ADCC reporter assay: NFAT activation (Lucia luciferase) in Jurkat-Lucia NFAT-CD16 effector cells, EC50” value in experiment [4] was ~0.101 µg/mL. In experiment [5], this molecule gave a concentration for a half-maximal effect (EC50) of 0.87 nM. In experiment [6], the Kd came out at 1.11 nM. Moreover, the “fold higher binding affinity than LegoChem 18A5 antibody for human DLK1-FL” value in experiment [7] is > 20 fold. Also, the binding result in experiment [8] is “no binding (tested: 20µg/ml)”.
